Data on two molecules can be found in PMC3864901, “A Conserved Sequence Extending Motif III of the Motor Domain in the Snf2-Family DNA Translocase Rad54 Is Critical for ATPase Activity” (PLoS ONE, 2013).

In data set [1] the test system is Rad54 (Saccharomyces cerevisiae). Briefly: EMSA (glutaraldehyde-fixed, agarose). To be noted: 13 mM Mg acetate, 25 mM TEA-Ac pH 7.5, 13 mM Mg acetate, 1.8 mM DTT, 100 ug/ml BSA, 11.25% glycerol, 113 mM NaCl, 30 uM bp pUC19, 30 C 15 min, then 0.25% glutaraldehyde 15 min …. In general terms: Mobility shift assays separate free from complexed probe on a gel.
Substrate in data set [2]: Nc1ncnc2c1ncn2[C@@H]1O[C@H](COP(=O)(O)OP(=O)(O)OP(=O)(O)O)[C@@H](O)[C@H]1O
The data set is described as follows: NADH-coupled ATPase assay, Michaelis-Menten fit. It counts as biochemical, Saccharomyces cerevisiae. To be noted: 1.5 uM pUC19 dsDNA, 2.5 mM free Mg(OAc)2, 25 mM HEPES pH 7.5, 30 C, 5 nM Rad54. From the text:
NADH-coupled ATPase assay, Michaelis-Menten fit on Rad54 | Michaelis-Menten parameters of Rad54 and Rad54-2A as determined from the ATP titrations in B

With pUC19 supercoiled dsDNA, the binding (bp per Rad54 monomer (all DNA bound)) in data set [1] (5 mM ATP + regeneration system) and in data set [1] (no nucleotide) was 36 throughout.

B1: Rad54 (Saccharomyces cerevisiae S288C) (protein)
chain: MARRRLPDRPPNGIGAGERPRLVPRPINVQDSVNRLTKPFRVPYKNTHIPPAAGRIATGSDNIVGGRSLRKRSATVCYSGLDINADEAEYNSQDISFSQLTKRRKDALSAQRLAKDPTRLSHIQYTLRRSFTVPIKGYVQRHSLPLTLGMKKKITPEPRPLHDPTDEFAIVLYDPSVDGEMIVHDTSMDNKEEESKKMIKSTQEKDNINKEKNSQEERPTQRIGRHPALMTNGVRNKPLRELLGDSENSAENKKKFASVPVVIDPKLAKILRPHQVEGVRFLYRCVTGLVMKDYLEAEAFNTSSEDPLKSDEKALTESQKTEQNNRGAYGCIMADEMGLGKTLQCIALMWTLLRQGPQGKRLIDKCIIVCPSSLVNNWANELIKWLGPNTLTPLAVDGKKSSMGGGNTTVSQAIHAWAQAQGRNIVKPVLIISYETLRRNVDQLKNCNVGLMLADEGHRLKNGDSLTFTALDSISCPRRVILSGTPIQNDLSEYFALLSFSNPGLLGSRAEFRKNFENPILRGRDADATDKEITKGEAQLQKLSTIVSKFIIRRTNDILAKYLPCKYEHVIFVNLKPLQNELYNKLIKSREVKKVVKGVGGSQPLRAIGILKKLCNHPNLLNFEDEFDDEDDLELPDDYNMPGSKARDVQTKYSAKFSILERFLHKIKTESDDKIVLISNYTQTLDLIEKMCRYKHYSAVRLDGTMSINKRQKLVDRFNDPEGQEFIFLLSSKAGGCGINLIGANRLILMDPDWNPAADQQALARVWRDGQKKDCFIYRFISTGTIEEKIFQRQSMKMSLSSCVVDAKEDVERLFSSDNLRQLFQKNENTICETHETYHCKRCNAQGKQLKRAPAMLYGDATTWNHLNHDALEKTNDHLLKNEHHYNDISFAFQYISH
notes: wild-type yeast Rad54, overexpressed in S. cerevisiae and purified as in earlier work
One may read the Km as the concentration of substrate that gives half-maximal velocity. B1: in data set [2], the Km is 170 ± 40 µM and the kcat is 1,219 ± 45 min-1.
